Series [1] deals with the molecule itself. Nature of the series: SEC; oligomer state of USP25 point mutants (Supplementary Figures 6 and 11, not shown); by the methods all USP25 constructs were loaded on a Superdex 16 column in 100 mM NaCl, 20 mM Tris-HCl pH 8.0, 1 mM β-mercaptoethanol and run on native PAGE. In general terms: SEC sorts molecules by how far they enter the pores of the column.
Series [2] concerns the molecule itself. Nature of the series: crystal structure; lysine-methylated USP25NCD tetramer fraction; space group I422, one molecule per asymmetric unit, tetramer from the crystal lattice; 3.28 Å.

B1: USP25NCD L271W (enzyme, human, UniProt Q9UHP3 18-714, looked up)
chain: QTFLNQLREITGINDTQILQQALKDSNGNLELAVAFLTAKNAKTPQQEETTYYQTALPGNDRYISVGSQADTNVIDLTGDDKDDLQRAIALSLAESNRAFRETGITDEEQAISRVLEASIAENKACLKRTPTEVWRDSRNPYDRKRQDKAPVGLKNVGNTCWFSAVIQSLFNLLEFRRLVLNYKPPSNAQDLPRNQKEHRNLPFMRELRYLFALLVGTKRKYVDPSRAVEILKDAFKSNDSQQQDVSEFTHKLWDWLEDAFQMKAEEETDEEKPKNPMVELFYGRFLAVGVLEGKKFENTEMFGQYPLQVNGFKDLHECLEAAMIEGEIESLHSENSGKSGQEHWFTELPPVLTFELSRFEFNQALGRPEKIHNKLEFPQVLYLDRYMHRNREITRIKREEIKRLKDYLTVLQQRLERYLSYGSGPKRFPLVDVLQYALEFASSKPVCTSPVDDIDASSPPSGSIPSQTLPSTTEQQGALSSELPSTSPSSVAAISSRSVIHKPFTQSRIPPDLPMHPAPRHITEEELSVLESCLHRWRTEIENDTRDLQESISRIHRTIELMYSDKSMIQVPYRLHAVLVHEGQANAGHYWAYIFDHRESRWMKYNDIAVTKSSWEELVRDSFGGYRNASAYCLMYINDKAQFLIQEEFNKETGQPLVGIETLPPDLRDFVEEDNQRFEKELEEWDAQLAQKALQE
notes: The methods speak of 'USP25NCD point mutants'; not shown: Smt3, N-terminal, cleaved
In the case of B1, the stoichiometry N (commonly a count of units in the complex or per binding partner) in series [1] is 4.

B2: USP25NCD, lysine-methylated (tetramer fraction used for crystallization) (enzyme, human, UniProt Q9UHP3 18-714, looked up)
chain: QTFLNQLREITGINDTQILQQALKDSNGNLELAVAFLTAKNAKTPQQEETTYYQTALPGNDRYISVGSQADTNVIDLTGDDKDDLQRAIALSLAESNRAFRETGITDEEQAISRVLEASIAENKACLKRTPTEVWRDSRNPYDRKRQDKAPVGLKNVGNTCWFSAVIQSLFNLLEFRRLVLNYKPPSNAQDLPRNQKEHRNLPFMRELRYLFALLVGTKRKYVDPSRAVEILKDAFKSNDSQQQDVSEFTHKLLDWLEDAFQMKAEEETDEEKPKNPMVELFYGRFLAVGVLEGKKFENTEMFGQYPLQVNGFKDLHECLEAAMIEGEIESLHSENSGKSGQEHWFTELPPVLTFELSRFEFNQALGRPEKIHNKLEFPQVLYLDRYMHRNREITRIKREEIKRLKDYLTVLQQRLERYLSYGSGPKRFPLVDVLQYALEFASSKPVCTSPVDDIDASSPPSGSIPSQTLPSTTEQQGALSSELPSTSPSSVAAISSRSVIHKPFTQSRIPPDLPMHPAPRHITEEELSVLESCLHRWRTEIENDTRDLQESISRIHRTIELMYSDKSMIQVPYRLHAVLVHEGQANAGHYWAYIFDHRESRWMKYNDIAVTKSSWEELVRDSFGGYRNASAYCLMYINDKAQFLIQEEFNKETGQPLVGIETLPPDLRDFVEEDNQRFEKELEEWDAQLAQKALQE
modifications: lysines methylated (borane-dimethylamine complex and formaldehyde)
notes: USP25, human, residues 18-714 of the 1055-residue protein; Model holds Tyr159 to Ala708; NTD (18-158) and several loops (205-214, 256-260, 346-354, 471-515, 671-677) are not seen; also called USP25NCD tetramer; lysine methylated USP25NCD; not shown: Smt3, N-terminal, cleaved
For B2, the “stoichiometry N” value in series [2] was found to be 4.
